This series addresses T1, caspase-1 (Homo sapiens, UniProt P29466).
T1 sequence (P29466 120-297 limits assumed): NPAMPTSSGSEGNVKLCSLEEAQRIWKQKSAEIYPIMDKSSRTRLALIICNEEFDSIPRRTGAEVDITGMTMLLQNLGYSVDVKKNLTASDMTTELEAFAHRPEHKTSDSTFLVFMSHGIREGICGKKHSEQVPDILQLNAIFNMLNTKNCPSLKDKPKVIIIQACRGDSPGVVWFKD
T1 sequence (P29466 317-404 limits assumed): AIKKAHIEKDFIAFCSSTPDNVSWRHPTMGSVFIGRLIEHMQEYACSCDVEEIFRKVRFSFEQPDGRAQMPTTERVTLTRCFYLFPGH
Put plainly: Enzyme kinetic studies with caspase-1. The class given is biochemical. The note with it: probe 0.5–4 μM, Cas-1 2 U/mL, HEPES assay buffer, 37 °C, read every 2 min, λex 510 nm/λem 585 nm, Lineweaver-Burk plot; read-out: Michaelis constant (KM). The method, then: The spectral and chemical properties of all probes were then evaluated. Upon interaction with Cas-1, the specific peptide of the probes is cleaved, leading to the disruption of the FRET process in the system and the recovery of donor fluorescence (Fig. 2a). Prior to fluorescence detection, the UV-vis absorption spectra of the probes were acquired. […] Subsequently, the sensitivity of the probes towards Cas-1 was measured in HEPES buffer (50 mM HEPES, 50 mM NaCl, 0.1% chaps, 5% glycerol, 10 mM DTT, 10 mM EDTA). […] The response differences among the probes were more intuitively observed by analyzing the standard curves of fluorescence intensity at 585 nm against the concentration of Cas-1 (Fig. 2b). […] The reaction kinetics of the probes were also measured by monitoring the fluorescence intensity of FPy1, YPy1 and WPy1 (0.5–4 μM) following incubation with Cas-1 (2 U mL^−1) (Fig. S3a–f). […] The reaction time of the probes was also investigated by monitoring the fluorescence spectra of the probes (5 μM) incubated with Cas-1 (2 U mL^−1) at various time intervals (Fig. S4a–c). […] Finally, the selectivity of the probes was evaluated. A series of potential biologically relevant interferents were selected, and the results illustrated that these interferents had no effect on the probes (Fig. S5a–c). […]

As to “–FLTDG– [FPy1, RhoB donor, hNR quencher]”, the Km came out at 4.42 µM.

The Km is the concentration of substrate that gives half-maximal velocity.

These data come from publication PMC12598616, “Design and optimization of caspase-1-responsive fluorescent probes for pyroptosis imaging and anti-pyroptosis drug screening” (Chemical Science, 2025).
